# Source: article PMC10865995
# B1: ssRNA (64mer) (ssRNA)
# RNA: UUUCCCAGCACCAGAUUCAGCAUACGUUACCGAUCGUACGUUCGAUGCUGGCUACUGCUAGCUU
# Columns and labels:
# Test in all cases: EMSA
# SRSF1 P89S = SRSF1 P89S (human, UniProt Q07955 1-248, P89S)
# SRSF1 wild type = SRSF1 wild type (human, UniProt Q07955 1-248)
# SRSF1 E60D = SRSF1 E60D (human, UniProt Q07955 1-248, E60D)
# Chain of SRSF1 E60D (Q07955 whole entry E60D): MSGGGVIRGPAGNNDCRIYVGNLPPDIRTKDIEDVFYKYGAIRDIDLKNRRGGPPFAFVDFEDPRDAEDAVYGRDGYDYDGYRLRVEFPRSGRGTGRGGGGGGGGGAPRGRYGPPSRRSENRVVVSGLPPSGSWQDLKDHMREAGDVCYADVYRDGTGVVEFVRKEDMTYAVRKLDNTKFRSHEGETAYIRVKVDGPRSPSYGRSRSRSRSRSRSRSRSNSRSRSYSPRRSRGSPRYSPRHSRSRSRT
# Chain of SRSF1 wild type (Q07955 whole entry): as the sequence (Q07955 whole entry E60D) above, with D60E counted along it
# Chain of SRSF1 P89S (Q07955 whole entry P89S): as the sequence (Q07955 whole entry E60D) above, with D60E, P89S counted along it
binder,measurement,setting,value
B1,binding result,SRSF1 P89S,no binding
same,binding result,SRSF1 wild type,binds
same,binding result,SRSF1 E60D,binds
